Tested on: MS2 coat protein
Assay: apparent KD of MS2 coat protein; higher = weaker reporter binding
Conditions: Eterna round: R107
In short: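 Apparent KD was obtained for each design as the median of normalised binding-curve fits over its clusters. RNA switches transcribed on-chip from Illumina sequencing clusters were titrated with SNAP-549-labelled MS2 coat protein (twofold steps, 0.7 or 1.5 nM to 3 µM) in 100 mM Tris-HCl pH 7.5, 80 mM KCl, 4 mM MgCl2, without or with constant ligand.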

[1] = input ligand: theophylline 20 uM
[2] = input ligand: tryptophan 2.4 mM
[3] = input ligand: theophylline 2 mM

| Sequence | apparent KD of MS2 coat protein (input ligand: arginine 13.2 mM) | apparent KD of MS2 coat protein [1] | apparent KD of MS2 coat protein [2] | apparent KD of MS2 coat protein [3] | apparent KD of MS2 coat protein (input ligand: none) |
| --- | --- | --- | --- | --- | --- |
| CAUCGGGCGGUAAAUGGCGGGUACGGUGAUACCAGUUUUUGAUUUAACCCUUGGCAGCACUAUACAUGAGGAUCACCCAUGUAAU [theeternabot_exclusion_MS2_Theo_A_15] | 17.7 nM | 23.2 nM | 19.5 nM | – | – |
| CAUGCGGCUAGUGAGCGUGGUGAGUAAAGGCGAGGACCGGUACGGCCGCCACUCGAGGCAAGACAUGAGGAUCACCCAUGUUGUA [theeternabot_exclusion_MS2_Trp_A_27] | 10.8 nM | 19.3 nM | – | 15.9 nM | – |
| CAUUAAUUACGAAGGAGCGUCGAGAAUGGGUAAACAUGAGGAUCACCCAUGUGAAGGGAACGGCAGGUAGGUCGCGUAAUUAAUG [#22 Same State - Arginine B] | 105 nM | 116 nM | 60.5 nM | 75.1 nM | 97.2 nM |
| CCAUAAGUACCGGUCCUCAGAUCCUCAUGACGAGGACCGGUACGGCCGCCACUCGAAACAUGAGGAUCACCCAUGUAAUAAUACC [Brourdmod18] | 26.4 nM | 101 nM | – | 97.6 nM | – |
| CCAUGCAGGUCGGCCGCCACUACACACAUGAGGAUCACCCAUGUAGUUACUGGGUGAAGUGGCAGUAGGACCGGGACCUGCACAU [Brourdmod19] | 94.7 nM | 326 nM | – | 541 nM | – |
| CCAUGGCUAGGAAGGAGCGCAUACUUCACAUGAGGAUCACCCAUGUCGAGACGUGAGUCAGUGCAGGUAGGUCGCCUAGCCAUGG [Same State - Arginine B (Freestyle 30)] | 19.8 nM | 29.2 nM | 18.6 nM | 24.8 nM | 16.7 nM |
| CCCAAAUAGAUAUUUGGGAUUUUACUCGAAGGAGCGUCAUAGUAGGCAGGUAGGUCGCGAGACAUGAGGAUCACCCAUGUAGAGA [ss-argA-N] | 34.1 nM | 45.9 nM | 40.9 nM | 45.1 nM | 41.1 nM |
| CCCAGUUAUAACAAAGGAAUAAUACUCGAAGGAGCGUCAUAGUAGGCAGGUAGGUCGCGAGACAUGAGGAUCACCCAUGUAGAGA [qvvmullin] | 34.3 nM | 49.5 nM | 32.8 nM | 32.2 nM | 46 nM |
| CCGACGAUGACUAUGGGUCAGGAGUGCGUACGAGGACCGGUACGGCCGCCACUCGAGGAGUGGGACAUGAGGAUCACCCAUGUGG [#19 Exclusion Tryptophan A] | 44.6 nM | 49.8 nM | 47.8 nM | 54.8 nM | 50.2 nM |
| CCGCACAUGAGGAUCACCCAUGUCAGGGAUACCAGCCCAGACAUGGGCCCUUGGCAGCCCUGUAGCUGACGAAAGUCAGCAGCGG [Omei Theo A SS A v1] | 51.9 nM | 277 nM | 44.7 nM | 57.6 nM | 31.7 nM |
| CCGCCCACGAAUGAUACCAGCUAAAAUCAUGUACCAGACACAUGAGGAUCACCCAUGUAAAGCCCUUGGCAGCGUACGCCACCCG [e-theoB-?] | 25.5 nM | 43.7 nM | 25.8 nM | – | – |
| CCGGGCUGUGGAGACAUAGCCCGGACUGAAGGAGCGGGAAUAAACCCAGGUAGGUCGCAGAGAUCCACAUGAGGAUCACCCAUGU [!0.S] | 34.4 nM | 40.9 nM | 36.7 nM | 46.8 nM | 34 nM |
| CCGUUAAAAUUCCAUUAUACAAUACCUGAAGGAGCGUAGGAAACUACAGGUAGGUCGCAGAUACAUGAGGAUCACCCAUGUACGG [SSAA #13] | 14.6 nM | 20.3 nM | 17.3 nM | 22.5 nM | 16.2 nM |
| CCUAGCACACAUGAUACCAGCGACAUGAGGAUCACCCAUGUACGGCGUGUAUCGCAAGGUUGCCCUUGGCAGCAUGAUAGUGCUG [Xeerdi] | 12.7 nM | 24.7 nM | 14.2 nM | – | – |
| CCUAUAUAGUCGGCCGCCACUGACUACAUGAGGAUCACCCAUGUAACACGAACAUGGUCCUGGAUCAGGACCGGGACUAUAUAGG [Tryp B Ex t5] | 16.5 nM | 24.2 nM | 122 nM | 22.2 nM | 20.7 nM |
| CCUAUCCAGUCGGCCGCCACUGACCAUUUGGAACAGUGGGUGAAAACAUGAGGAUCACCCAUGUACAGGACCGGGACUGUAUAGG [Ex Tryptophan B 20] | 14.7 nM | 15.7 nM | – | 13.9 nM | – |
| CCUAUGCAGUCGGCCGCCACUGAGUCCUCAAUAAUAAAUUAAUAUACAUGAGGAUCACCCAUGUACAGGACCGGGACUGUAUAGG [Ex Tryptophan B 13] | 96.7 nM | 268 nM | – | 215 nM | – |
| CCUCGGGACCGAAGGAGCGAGAUAACAACAUUGGGUCUCAACACAUGAGGAUCACCCAUGUCUCAGGUAGGUCGCGGUACCAUGG [Exclusion Arginine B GF22] | 140 nM | 275 nM | 182 nM | 387 nM | 385 nM |

| Sequence | apparent KD of MS2 coat protein (input ligand: arginine 13.2 mM) | apparent KD of MS2 coat protein [1] | apparent KD of MS2 coat protein [2] | apparent KD of MS2 coat protein [3] | apparent KD of MS2 coat protein (input ligand: none) |
| --- | --- | --- | --- | --- | --- |
| CCUGAUAACUGAAGGAGCGAGAAACCCUACAUGAGGAUCACCCAUGUAUACACGGGAACUUCUCAGGUAGGUCGCAGUUUGUCAG [Adiso] | 48 nM | 165 nM | 71.5 nM | 138 nM | 101 nM |
| CCUGCGUUUCUUCUUUCGCAGGAGGAUGAUACCAGUAGGGAAACCUACCCUUGGCAGCAUGGGACAUGAGGAUCACCCAUGUGGA [SSThA NP+V+V2 #1] | 354 nM | 522 nM | 430 nM | 130 nM | 503 nM |
| CCUGCGUUUCUUUUCUUUCGCAGGAAUGAUACCAGUAGGGAAACCUACCCUUGGCAGCAUGGGACAUGAGGAUCACCCAUGUUUU [SSThA NP+V+V2 #4] | 117 nM | 202 nM | 181 nM | – | – |
| CGAAUACGAAUUGAUACCAGCAUGUUAACAUGAGGAUCACCCAUGUUAAGGAUAACAUAAUGCCCUUGGCAGCAACGUAAAUUCG [Ab] | 16.7 nM | 17.7 nM | 14.4 nM | – | – |
| CGAAUGAAGCAAGAUACCAGUGUAGAUUUAGACAUGAGGAUCACCCAUGUGAGGCAUGAGCACCCUUGGCAGCUUAAGCAGAAAA [theeternabot_sameState_MS2_Theo_B_47] | 115 nM | 25.7 nM | 29.4 nM | 60.5 nM | 28.7 nM |
| CGAGUAAGAACAAUCGAAUAACGGUUUUCGCGAGGACCGGUACGGCCGCCACUCGUGUGAAAUAACACAUGAGGAUCACCCAUGU [3'end-1] | 23.7 nM | 26.8 nM | – | 27.3 nM | – |
| CGAGUAAGAACAAUCGAAUAACGGUUUUCGCGAGGACCGGUACGGCCGCCACUCGUGUGAUAUAACACAUGAGGAUCACCCAUGU [3'end-1] | 25.3 nM | 37.6 nM | – | 34.9 nM | – |
| CGAGUCCGCUGAUGGGCUAAGUCAGGUGAUACCAGCCACUCCCGCGGCCCUUGGCAGCACAUGAGGAUCACCCAUGUAGGGCUUG [Iserbele] | 19.2 nM | 51.1 nM | 23.1 nM | – | – |
| CGAGUUCGCUGAUGGGCUACGUCAGGUGAUACCAGCCACUCCCGCGGCCCUUGGCAGCACAUGAGGAUCACCCAUGUAGAGCUUG [Esinve] | 12.2 nM | 28.6 nM | 15 nM | – | – |
| CGAUUUAAGACGGCCGCCACUAUUAAGUAACAAAAUAAACAUGAGGAUCACCCAUGUACAUGGGAUAGGACCGGGUCCAAUAUCG [A2] | 34.8 nM | 79.7 nM | – | 84.4 nM | – |
| CGCAACCCACAUGAGGAUCACCCAUGUGAAGGAGCGCCGAAUAAGGCAGGUAGGUCGCGCAUGAAUAAAUCAUGUAGGAAGCGAA [XArg-A 6 V1&2] | 20.6 nM | 32.6 nM | 29.1 nM | 33.4 nM | 32.2 nM |
| CGCAACCCACAUGAGGAUCACCCAUGUGAAGGAGCGGCGAAUAAGCCAGGUAGGUCGCGCAUGAAUAAAUCAUGUAGGAAGCGAA [XArg-A 7 V1&2] | 18 nM | 27.8 nM | 22.5 nM | 28 nM | 20.1 nM |
| CGCCACUCGAGUGAUCCUCACGAGUGGCUACGAGGACCGGUACGGCCGCCACUCGAAUUAACAUGAGGAUCACCCAUGUACUCCA [Brourdmod10] | 17.4 nM | 173 nM | – | 193 nM | – |
| CGGACAUGAGGAUCACCCAUGUACACUGAAGGAGCGUCGAGAACGACAGGUAGGUCGCAGGUUGAGGAAGGUGAUGCUCAAGAAG [Exclusion Arginine A GF4] | 25.1 nM | 71.9 nM | 50.6 nM | 57.4 nM | 44.7 nM |
| CGGCCCUCACACGAGGAUCACCCGUGUGAUACCAGCCUGGAAACAGGCCCUUGGCAGCACAAGGUCAUCAAAGAUGACCAAGCCG [TheoAX 22 #SwitchBubble] | 9.52 nM | 18 nM | 12.6 nM | 31.8 nM | 11.9 nM |
| CGGCCCUCACCUGAGGAACACCCAGGUGAUACCAGCCUGGAAACAGGCCCUUGGCAGCACCAGGUCAUCAAAGAUGACCAAGCCG [TheoAX 24 #SwitchBubble #AlternativeMS2] | 20.8 nM | 28.7 nM | 19.2 nM | 171 nM | 20.1 nM |
| CGGCCCUCACUUGAGGAUCACCCAAGUGAUACCAGCCUGGAAACAGGCCCUUGGCAGCACUAGGUCAUCAAAGAUGACCAAGCCG [TheoAX 28 #OpenEnded #AlternativeMS2] | 14.8 nM | 26 nM | 13.4 nM | 146 nM | 12.8 nM |
| CGGCUCAUAAUGGAUACCAGUCCAGCAUAGAAACCUUGACACAUGAGGAUCACCCAUGUUGACCCUUGGCAGCCAUUGAUCAUAC [theeternabot_exclusion_MS2_Theo_B_28] | 23.1 nM | 36.5 nM | 21.7 nM | – | – |
